Columns and labels:
[1] = target: nonsulfated human cationic trypsin purified from E. coli (human); assay: equilibrium binding assay; equilibrium dissociation constant of ecotin on human trypsins, 15 h of incubation; further conditions not told for ecotin
[2] = target: native sulfated human cationic trypsin purified from pancreatic juice (human); assay: as above

ecotin (from UniProt P23827 21-162) (natural protein)
Kd [1]: 8.1 pM
Kd [2]: 5.6 pM
